Source: publication PMC6039102 (Nature, 2018)
Values joined by “and” are separate entries in the source; they are usually repeats but may differ in a detail not shown here. Equal entries are not always repeated.

B1: KSHV major capsid protein (MCP) (natural protein)
chain: MEATLEQRPFPYLATEANLLTQIKESAADGLFKSFQLLLGKDAREGSVRFEALLGVYTNVVEFVKFLETALAAACVNTEFKDLRRMIDGKIQFKISMPTIAHGDGRRPNKQRQYIVMKACNKHHIGAEIELAAADIELLFAEKETPLDFTEYAGAIKTITSALQFGMDALERGLVDTVLAVKLRHAPPVFILKTLGDPVYSERGLKKAVKSDMVSMFKAHLIEHSFFLDKAELMTRGKQYVLTMLSDMLAAVCEDTVFKGVSTYTTASGQQVAGVLETTDSVMRRLMNLLGQVESAMSGPAAYASYVVRGANLVTAVSYGRAMRNFEQFMARIVDHPNALPSVEGDKAALADGHDEIQRTRIAASLVKIGDKFVAIESLQRMYNETQFPCPLNRRIQYTYFFPVGLHLPVPRYSTSVSVRGVESPAIQSTETWVVNKNNVPLCFGYQNALKSICHPRMHNPTQSAQALNQAFPDPDGGHGYGLRYEQTPNMNLFRTFHQYYMGKNVAFVPDVAQKALVTTEDLLHPTSHRLLRLEVHPFFDFFVHPCPGARGSYRATHRTMVGNIPQPLAPREFQESRGAQFDAVTNMTHVIDQLTIDVIQETAFDPAYPLFCYVIEAMIHGQEEKFVMNMPLIALVIQTYWVNSGKLAFVNSYHMVRFICTHMGNGSIPKEAHGHYRKILGELIALEQALLKLAGHETVGRTPITHLVSALLDPHLLPPFAYHDVFTDLMQKSSRQPIIKIGDQNYDNPQNRATFINLRGRMEDLVNNLVNIYQTRVNEDHDERHVLDVAPLDENDYNPVLEKLFYYVLMPVCSNGHMCGMGVDYQNVALTLTYNGPVFADVVNAQDDILLHLENGTLKDILQAGDIRPTVDMIRVLCTSFLTCPFVTQAARVITKRDPAQSFATHEYGKDVAQTVLVNGFGAFAVADRSREAAETMFYPVPFNKLYADPLVAATLHPLLANYVTRLPNQRNAVVFNVPSNLMAEYEEWHKSPVAAYAASCQATPGAISAMVSMHQKLSAPSFICQAKHRMHPGFAMTVVRTDEVLAEHILYCSRASTSMFVGLPSVVRREVRSDAVTFEITHEIASLHTALGYSSVIAPAHVAAITTDMGVHCQDLFMIFPGDAYQDRQLHDYIKMKAGVQTGSPGNRMDHVGYTAGVPRCENLPGLSHGQLATCEIIPTPVTSDVAYFQTPSNPRGRAACVVSCDAYSNESAERLLYDHSIPDPAYECRSTNNPWASQRGSLGDVLYNITFRQTALPGMYSPCRQFFHKEDIMRYNRGLYTLVNEYSARLAGAPATSTTDLQYVVVNGTDVFLDQPCHMLQEAYPTLAASHRVMLDEYMSNKQTHAPVHMGQYLIEEVAPMKRLLKLGNKVVY
B2: KSHV smallest capsid protein (SCP) (natural protein)
chain: MSNFKVRDPVIQERLDHDYAHHPLVARMNTLDQGNMSQAEYLVQKRHYLVFLIAHHYYEAYLRRMGGIQRRDHLQTLRDQKPRERADRVSAASAYDAGTFTVPSRPGPASGTTPGGQDSLGVSGSSITTLSSGPHSLSPASDILTTLSSTTETAAPAVADARKPPSGKKK

Tests used:
Experiment in all cases: cryo-EM structure
[1] = biological target: KSHV triplex protein Tri2 (Kaposi's sarcoma-associated herpesvirus (KSHV))
[2] = biological target: KSHV triplex protein Tri1 (Kaposi's sarcoma-associated herpesvirus (KSHV))
cryo-EM structure = biological target: the molecule itself
[3] = biological target: B1

Q: Which results are given for “KSHV triplex protein Tri2 (natural protein)”?
A: stoichiometry N [1]: 2; stoichiometry N [2]: 2

Q: For B1, which “stoichiometry N” value (cryo-EM structure) is on record?
A: 5 and 6

Q: Does B2 bind [3]?
A: binds
